From IntAct's records for PubMed 16615911

B1: E3 ubiquitin-protein ligase SIAH1A (Mus musculus), P61092 (parent)
chain: MSRQTATALPTGTSKCPPSQRVPALTGTTASNNDLASLFECPVCFDYVLPPILQCQSGHLVCSNCRPKLTCCPTCRGPLGSIRNLAMEKVANSVLFPCKYASSGCEITLPHTEKAEHEELCEFRPYSCPCPGASCKWQGSLDAVMPHLMHQHKSITTLQGEDIVFLATDINLPGAVDWVMMQSCFGFHFMLVLEKQEKYDGHQQFFAIVQLIGTRKQAENFAYRLELNGHRRRLTWEATPRSIHEGIATAIMNSDCLVFDTSIAQLFAENGNLGINVTISMC
partner: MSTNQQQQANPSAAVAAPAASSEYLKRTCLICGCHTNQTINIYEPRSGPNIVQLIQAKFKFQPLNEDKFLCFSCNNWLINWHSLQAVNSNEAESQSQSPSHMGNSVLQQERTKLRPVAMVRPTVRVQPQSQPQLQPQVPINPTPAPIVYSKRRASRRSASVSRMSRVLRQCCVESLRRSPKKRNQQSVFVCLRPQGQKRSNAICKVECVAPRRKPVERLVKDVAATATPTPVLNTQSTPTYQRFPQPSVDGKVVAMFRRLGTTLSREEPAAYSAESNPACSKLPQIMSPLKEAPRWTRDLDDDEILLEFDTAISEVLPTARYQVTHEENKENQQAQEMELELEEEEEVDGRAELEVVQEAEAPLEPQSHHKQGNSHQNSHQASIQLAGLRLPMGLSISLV

Variants of: B1
Details: with phyl_drome phyl

Variant	effect of a mutation on the interaction
M180K	disrupting interaction
L158D	disrupting interaction strength
